In experiment [1] the target is T1, human-derived Fcγ receptor IIb (Recombinant Human FcRIIB/C, R&D systems) (human, UniProt P31994 46-217, limits assumed).
T1 construct: Bought recombinant protein, construct not described; also called FcγRIIb
T1 sequence (looked up): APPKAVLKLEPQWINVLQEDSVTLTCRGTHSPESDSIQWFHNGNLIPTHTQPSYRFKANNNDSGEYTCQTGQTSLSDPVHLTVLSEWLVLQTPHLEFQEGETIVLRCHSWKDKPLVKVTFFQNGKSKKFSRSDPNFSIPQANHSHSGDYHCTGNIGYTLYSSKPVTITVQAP
As to the kind of experiment: SPR (Biacore T100), FcγRIIb immobilized on CM5, antibody as analyte at 200 µg/ml, 25 C. The protocol: The FcγRIIb binding was assessed by the procedure described below. […] The amounts of bound antibody were compared. […] FcγRIIb was immobilized onto the sensor chip CM5 (Biacore) by the amine coupling method. The final amount of immobilized FcγRIIb was about 4,300 RU. Then, the running buffer was injected until the baseline was stabilized. The measurement was carried out after the baseline was stabilized. […] The running buffer used was HBS-EP+ (10 mM HEPES, 0.15M NaCl, 3 mM EDTA, 0.05% v/v Surfactant P20), and the flow rate was 20 μl/min. The measurement temperature was 25° C. The concentration of each IgG or modified form thereof was adjusted to 200 μg/ml. 20 μl of an analyte was injected and allowed to interact with the immobilized FcγRIIb. After interaction, the analyte was dissociated from FcγRIIb and the sensor chip was regenerated by injecting 200 μl of the running buffer. […] This series of injection was repeated twice.
In general terms: Surface plasmon resonance follows binding to a sensor surface in real time, without labels.

Experiment [2] has as its target T2, hFcγRIIIaV-His6 (human-derived Fcγ receptor IIIa, Val) (human, UniProt P08637 17-208, limits assumed).
T2 construct: also called FcγRIIIa (Val); not shown: His6 tag
Put plainly: SPR (Biacore T100), hFcγRIIIaV-His6 immobilized on CM5, antibody as analyte at 250 µg/ml. How it is done: The FcγRIIIa binding was assessed by the procedure described below. […] The amounts of bound antibody were compared. […] FcγRIIIa was immobilized onto the sensor chip CM5 (Biacore) by the amine coupling method. […] The running buffer used was HBS-EP+, and the flow rate was 5 μl/min. The sample concentration was adjusted to 250 μg/ml using HBS-EP+. The analysis included two steps: two minutes of association phase where 10 μl of an antibody solution was injected and the subsequent four minutes of dissociation phase where the injection was switched with HBS-EP+. After the dissociation phase, the sensor chip was regenerated by injecting 20 μl of 5 mM hydrochloric acid. The association, dissociation, and regeneration constitute one analysis cycle. Various antibody solutions were injected to obtain sensorgrams. […] 1999 August; 29(8):2613-24.

Experiment [3] deals with T3, recombinant human IL-6R sR (R&D systems) (human, UniProt P08887 20-358).
T3 construct: Bought soluble receptor; also called rhIL-6sR; rhIL-s6R
T3 sequence (looked up): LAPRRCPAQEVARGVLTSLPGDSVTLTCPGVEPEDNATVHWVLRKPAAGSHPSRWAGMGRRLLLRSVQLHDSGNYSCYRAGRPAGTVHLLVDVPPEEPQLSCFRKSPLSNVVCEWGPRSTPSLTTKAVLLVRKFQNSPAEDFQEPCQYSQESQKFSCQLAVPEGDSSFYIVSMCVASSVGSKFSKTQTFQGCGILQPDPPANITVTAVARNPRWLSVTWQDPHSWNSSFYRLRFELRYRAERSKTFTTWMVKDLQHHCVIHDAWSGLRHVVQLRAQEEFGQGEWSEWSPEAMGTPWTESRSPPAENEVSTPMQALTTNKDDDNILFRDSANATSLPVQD
Put plainly: SPR (Biacore T100), antibody captured on Protein A, rhIL-6sR as analyte, 25 C. The protocol: The antigen-antibody interaction was measured by immobilizing 1,800 to 2,600 RU (resonance units) of rec-Protein A (Zymed) (hereinafter “Protein A”) onto a sensor chip, binding various antibodies onto the chip, and then flowing the antigen over the chip as an analyte. Various concentrations of recombinant human IL-6R sR (R&D systems) (hereinafter “rhIL-6sR”) were used as the antigen. All measurements were carried out at 25° C. The kinetic parameters, association rate constant kₐ (1/Ms) and dissociation rate constant kd (1/s) were calculated from the sensorgrams obtained by measurement. Then, KD (M) was determined based on the rate constants. The respective parameters were determined using Biacore T100 Evaluation Software (Biacore).

Experiment [4] deals with T4, SR344 (N-terminal 1st to 344th amino acids of soluble human IL-6R) (human, UniProt P08887 20-344, limits assumed).
T4 sequence (looked up): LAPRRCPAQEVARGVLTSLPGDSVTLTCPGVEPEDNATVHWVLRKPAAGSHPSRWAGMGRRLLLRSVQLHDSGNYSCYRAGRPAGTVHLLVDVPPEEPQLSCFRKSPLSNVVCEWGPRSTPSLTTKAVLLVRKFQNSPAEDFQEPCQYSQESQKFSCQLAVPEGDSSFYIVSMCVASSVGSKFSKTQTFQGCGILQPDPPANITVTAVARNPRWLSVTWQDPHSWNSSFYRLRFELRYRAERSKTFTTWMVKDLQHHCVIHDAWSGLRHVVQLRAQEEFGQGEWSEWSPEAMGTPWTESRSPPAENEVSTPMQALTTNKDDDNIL
As to the kind of experiment: cell-based or functional assay.

The target of experiment [5] is T4, SR344 (N-terminal 1st to 344th amino …). As to the kind of experiment: SPR (Biacore T100), Protein A/G capture, SR344 at 0, 0.36 and 1.4 µg/ml, 15 min dissociation, 37 C. The protocol: This measurement was carried out under the same conditions described in Example 2. The running buffer used was HBS-EP+, and the flow rate was 20 μl/min. Each antibody was prepared so that about 100 RU of the antibody was bound to Protein A/G. SR344 was prepared at 0, 0.065, 0.131, and 0.261 μg/ml using HBS-EP+ and used as an analyte. In the first step of the measurement, the antibody in solution was bound to Protein A/G, and the analyte solution was allowed to interact therewith. After three minutes of interaction, the solution was switched to HBS-EP+, and the dissociation phase was monitored for 10 or 15 minutes. After measurement of the dissociation phase, the sensor chip was regenerated by washing with 10 μl of 10 mM glycine-HCl (pH 1.5). The association, dissociation, and regeneration constitute one analysis cycle. Each antibody was measured according to this cycle.
The Tm of purified H96/PF1L-IgG1 was determined by the method described in Example 5. The affinity measurement was carried out under essentially the same conditions used in Example 5. Note that the concentration of SR344 was adjusted to 0, 0.36, and 1.4 μg/ml, and the dissociation phase was monitored for 15 minutes.

The target of experiment [6] is T5, soluble GPC3 core polypeptide (human, UniProt P51654 25-563).
T5 construct: also called soluble GPC3 core protein; soluble glypican-3 core
T5 sequence (P51654 other isoform, or with tags, fused parts or gaps limits assumed): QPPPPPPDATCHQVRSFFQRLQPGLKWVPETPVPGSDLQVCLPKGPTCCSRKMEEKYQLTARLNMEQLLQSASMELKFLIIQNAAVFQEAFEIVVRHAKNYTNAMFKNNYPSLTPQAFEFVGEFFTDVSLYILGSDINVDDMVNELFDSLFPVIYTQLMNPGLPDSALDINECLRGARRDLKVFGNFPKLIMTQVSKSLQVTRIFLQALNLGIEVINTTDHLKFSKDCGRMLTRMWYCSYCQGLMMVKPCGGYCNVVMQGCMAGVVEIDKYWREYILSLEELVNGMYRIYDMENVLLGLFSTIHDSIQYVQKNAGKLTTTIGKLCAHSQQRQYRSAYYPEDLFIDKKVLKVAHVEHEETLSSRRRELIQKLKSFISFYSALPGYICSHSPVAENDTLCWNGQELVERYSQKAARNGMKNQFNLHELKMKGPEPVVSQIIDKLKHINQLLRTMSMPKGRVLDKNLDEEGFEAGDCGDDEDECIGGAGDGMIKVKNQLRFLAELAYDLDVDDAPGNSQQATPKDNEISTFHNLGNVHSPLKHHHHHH
Put plainly: competitive ELISA on plate-immobilized soluble GPC3 core polypeptide; competitor: biotinylated H0L0 antibody at 0.3 µg/mL. The protocol: 100 μl of the polypeptide solution was added to each well of a 96-well plate. […] After 200 μl of blocking buffer was added, the plate was blocked at 4° C. overnight or longer. […] The plate was incubated at room temperature for one hour, and then washed five times with washing buffer using SkanWasher 400 (Molecular Devices). Goat anti-streptavidin alkaline phosphatase (Zymed) was 20,000-times diluted with substrate buffer and added to the plate at 100 μl/well. The plate was incubated at room temperature for one hour, and then washed five times with washing buffer using SkanWasher 400. The concentration of phosphatase substrate (Sigma) was adjusted to 1 mg/ml using the substrate buffer, and the solution was added to the plate at 100 μl/well. The plate was incubated for one hour.

By Kd is commonly meant the concentration at which binding is half-saturated. In general, koff refers to a measure of how fast the partners let go of each other. The kon is a measure of how fast the partners come together.

T2 sequence (P08637 17-208 F176V limits assumed): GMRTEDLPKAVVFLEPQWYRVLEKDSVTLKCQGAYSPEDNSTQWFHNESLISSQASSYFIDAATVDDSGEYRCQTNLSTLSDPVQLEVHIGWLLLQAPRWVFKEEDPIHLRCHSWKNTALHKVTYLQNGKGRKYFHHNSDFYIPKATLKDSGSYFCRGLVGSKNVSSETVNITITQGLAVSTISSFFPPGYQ

B1: WT-M11ΔGK (antibody)
heavy: QVQLQESGPGLVRPSQTLSLTCTVSGYSITSDHAWSWVRQPPGRGLEWIGYISYSGITTYNPSLKSRVTMLRDTSKNQFSLRLSSVTAADTAVYYCARSLARTTAMDYWGQGSLVTVSSASTKGPSVFPLAPSSKSTSGGTAALGCLVKDYFPEPVTVSWNSGALTSGVHTFPAVLQSSGLYSLSSVVTVPSSSLGTKTYTCNVDHKPSNTKVDKTVERKSCVECPPCPAPPVAGPSVFLFPPKPKDTLMISRTPEVTCVVVDVSQEDPEVQFNWYVDGVEVHNAKTKPREEQFNSTYRVVSVLTVLHQDWLNGKEYKCKVSNKGLPSSIEKTISKAKGQPREPQVYTLPPSQEEMTKNQVSLTCLVKGFYPSDIAVEWESNGQPENNYKTTPPVLDSDGSFFLYSKLTVDKSRWQEGNVFSCSVMHEALHNHYTQKSLSLSL
light: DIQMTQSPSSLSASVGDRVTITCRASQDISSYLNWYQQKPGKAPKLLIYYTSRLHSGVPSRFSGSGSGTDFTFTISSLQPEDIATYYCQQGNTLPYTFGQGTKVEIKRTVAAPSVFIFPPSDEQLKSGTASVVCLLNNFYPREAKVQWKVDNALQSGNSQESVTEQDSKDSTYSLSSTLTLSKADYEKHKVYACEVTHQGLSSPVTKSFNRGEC
As for B1, the binding result in experiment [1] and in experiment [2] was “binds” throughout.

B2: WT-M17ΔGK (antibody, human IgG1, kappa)
heavy: QVQLQESGPGLVRPSQTLSLTCTVSGYSITSDHAWSWVRQPPGRGLEWIGYISYSGITTYNPSLKSRVTMLRDTSKNQFSLRLSSVTAADTAVYYCARSLARTTAMDYWGQGSLVTVSSASTKGPSVFPLAPSSKSTSGGTAALGCLVKDYFPEPVTVSWNSGALTSGVHTFPAVLQSSGLYSLSSVVTVPSSSLGTQTYICNVNHKPSNTKVDKKVEPKSCDKTHTCPPCPAPPVAGPSVFLFPPKPKDTLMISRTPEVTCVVVDVSHEDPEVKFNWYVDGVEVHNAKTKPREEQYNSTYRVVSVLTVLHQDWLNGKEYKCKVSNKGLPSSIEKTISKAKGQPREPQVYTLPPSRDELTKNQVSLTCLVKGFYPSDIAVEWESNGQPENNYKTTPPVLDSDGSFFLYSKLTVDKSRWQQGNVFSCSVMHEALHNHYTQKSLSLSP
light: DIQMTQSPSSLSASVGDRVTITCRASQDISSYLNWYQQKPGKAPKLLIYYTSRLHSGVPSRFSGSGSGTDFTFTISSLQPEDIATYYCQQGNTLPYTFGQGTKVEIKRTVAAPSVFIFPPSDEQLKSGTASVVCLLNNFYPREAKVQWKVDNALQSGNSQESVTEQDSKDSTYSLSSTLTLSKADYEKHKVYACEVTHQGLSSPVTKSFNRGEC
Take B2: the binding result in experiment [1] and in experiment [2] was “binds” in each case.

B3: RD-6 (antibody, V domains shown)
VH: QVQLQESGPGLVRPSQTLSLTCTVSGYSITSDHAWSWVRQPPGRGLEWIGYISYSGITTYNPSLKSRVTMLRDTSKNQFSLRLSSVTAADTAVYYCARLLARATAMDYWGQGSLVTVSS
VL: DIQMTQSPSSLSASVGDRVTITCRASQDISSYLNWYQQKPGKAPKLLIYYTSRLHSGVPSRFSGSGSGTDFTFTISSLQPEDIATYYCQQGNTLPYTFGQGTKVEIK
notes: VH assembled from the FR and CDR entries of humanized PM-1
For the molecule B3, in experiment [3], the Kd worked out at 12 pM, the “fold higher affinity than WT” value was roughly 50 fold, the koff worked out at 2.8e-05 s⁻¹ and the kon stood at 2.3e+06 M⁻¹ s⁻¹. Besides, the “BaF3/gp130 neutralizing activity, 100% inhibitory concentration against WT” value in experiment [4] was roughly 50 fold.

B4: WT-IgG2 (antibody)
heavy: QVQLQESGPGLVRPSQTLSLTCTVSGYSITSDHAWSWVRQPPGRGLEWIGYISYSGITTYNPSLKSRVTMLRDTSKNQFSLRLSSVTAADTAVYYCARSLARTTAMDYWGQGSLVTVSSASTKGPSVFPLAPCSRSTSESTAALGCLVKDYFPEPVTVSWNSGALTSGVHTFPAVLQSSGLYSLSSVVTVPSSNFGTQTYTCNVDHKPSNTKVDKTVERKCCVECPPCPAPPVAGPSVFLFPPKPKDTLMISRTPEVTCVVVDVSHEDPEVQFNWYVDGVEVHNAKTKPREEQFNSTFRVVSVLTVVHQDWLNGKEYKCKVSNKGLPAPIEKTISKTKGQPREPQVYTLPPSREEMTKNQVSLTCLVKGFYPSDIAVEWESNGQPENNYKTTPPMLDSDGSFFLYSKLTVDKSRWQQGNVFSCSVMHEALHNHYTQKSLSLSPGK
light: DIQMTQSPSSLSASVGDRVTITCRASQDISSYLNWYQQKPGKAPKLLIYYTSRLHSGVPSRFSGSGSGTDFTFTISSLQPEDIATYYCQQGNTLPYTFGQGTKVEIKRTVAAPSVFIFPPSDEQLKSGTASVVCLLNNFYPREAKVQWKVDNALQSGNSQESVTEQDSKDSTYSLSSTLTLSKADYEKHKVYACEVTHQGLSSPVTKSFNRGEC
Regarding B4, the binding result in experiment [1] and in experiment [2] was “binds” each time.

B5: H96/PF1L-IgG1 (antibody, V domains shown)
VH: QVQLQESGPGLVKPSETLSLTCAVSGYSISDDHAWSWVRQPPGEGLEWIGYISYSGITNYNPSLKGRVTISRDNSKNTLYLQMNSLRAEDTAVYYCARVLARITAMDYWGEGTLVTVSS
VL: DIQMTQSPSSLSASVGDSVTITCQASQDISSYLNWYQQKPGKAPELLIYYGSELHSGVPSRFSGSGSGTDFTFTISSLEAEDAATYYCGQGNRLPYTFGQGTKVEIE
In experiment [5], B5 registered a Kd of 39 pM, a koff of 4.8e-05 s⁻¹ and an association rate constant (kon) of 1.2e+06 M⁻¹ s⁻¹.

B6: antibody H15L4 (antibody, V domains shown)
VH: QVQLVQSGAEVKKPGASVKVSCKASGYTFTDYEMHWIRQPPGQGLEWIGAIDPKTGDTAYSQKFKGRVTLTADKSTSTAYMELSSLTSEDTAVYYCTRFYSYTYWGQGTLVTVSS
VL: DIVMTQSPLSLPVTPGEPASISCRSSQSLVHSNRNTYLHWYQQKPGQAPRLLIYKVSNRFSGVPDRFSGSGSGTDFTLKISRVEAEDVGVYYCSQNTHVPPTFGQGTKLEIK
notes: Point mutant of the anti-glypican 3 antibody H0L0
For the molecule B6, the binding result in experiment [6] is “binds”.

B7: Hspd1.8Lspd1.6 antibody (antibody, V domains shown)
VH: QVQLVQSGAEVKKPGASVTVSCKASGYTFTDYEMHWIRQPPGEGLEWIGAIDPKTGDTAYSQSFQDRVTLTADKSTSTAYMELSSLTSEDTAVYYCTRFYSYTYWGQGTLVTVSS
VL: DIVMTQSPLSLPVTPGEPASISCRASESLVHSNRNTYLHWYQQKPGQAPRLLIYKVSNRFSGVPDRFSGSGSGTDFTLTISSLQAEDVGVYYCSQNTHVPPTFGQGTKLEIK
notes: Anti-glypican 3, lowered isoelectric point; also called Hd1.8Ld1.6
In the case of B7, the binding result in experiment [6] is on record as “binds”.

(Values after patent US20150284465A1 (Chugai, published 2015).)
